Kd, koff and kon data for 1 molecule are collected here from patent CN108586611A (UNIV JINAN; ZHUHAI TAINUO MAIBO BIOTECHNOLOGY CO LTD; …, dated 2018).

As usually defined, the Kd is the equilibrium constant for the complex coming apart. As a reminder, the koff is the first-order rate constant of dissociation. A word on the kon: it is the rate constant with which the complex forms. A higher kon goes with fast association.

The assay has as its target 破伤风毒素 (tetanus toxin) (Clostridium tetani, UniProt P04958 2-1315).

Chain of 破伤风毒素 (tetanus toxin) (P04958 2-457 limits assumed, chain 1 of 2): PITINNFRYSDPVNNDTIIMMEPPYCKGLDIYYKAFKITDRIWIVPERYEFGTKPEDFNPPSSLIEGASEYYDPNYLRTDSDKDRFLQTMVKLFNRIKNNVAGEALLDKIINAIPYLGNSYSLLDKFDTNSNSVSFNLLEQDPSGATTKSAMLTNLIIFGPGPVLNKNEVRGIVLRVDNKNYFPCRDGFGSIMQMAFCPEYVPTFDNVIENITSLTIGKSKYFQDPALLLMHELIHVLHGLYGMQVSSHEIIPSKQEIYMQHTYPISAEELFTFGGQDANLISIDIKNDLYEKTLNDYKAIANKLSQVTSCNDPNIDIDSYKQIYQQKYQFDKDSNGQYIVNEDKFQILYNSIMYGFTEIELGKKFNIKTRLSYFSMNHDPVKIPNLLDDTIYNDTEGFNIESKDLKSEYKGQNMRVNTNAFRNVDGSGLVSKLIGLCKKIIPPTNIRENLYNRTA
Chain of 破伤风毒素 (tetanus toxin) (P04958 458-1315 limits assumed, chain 2 of 2): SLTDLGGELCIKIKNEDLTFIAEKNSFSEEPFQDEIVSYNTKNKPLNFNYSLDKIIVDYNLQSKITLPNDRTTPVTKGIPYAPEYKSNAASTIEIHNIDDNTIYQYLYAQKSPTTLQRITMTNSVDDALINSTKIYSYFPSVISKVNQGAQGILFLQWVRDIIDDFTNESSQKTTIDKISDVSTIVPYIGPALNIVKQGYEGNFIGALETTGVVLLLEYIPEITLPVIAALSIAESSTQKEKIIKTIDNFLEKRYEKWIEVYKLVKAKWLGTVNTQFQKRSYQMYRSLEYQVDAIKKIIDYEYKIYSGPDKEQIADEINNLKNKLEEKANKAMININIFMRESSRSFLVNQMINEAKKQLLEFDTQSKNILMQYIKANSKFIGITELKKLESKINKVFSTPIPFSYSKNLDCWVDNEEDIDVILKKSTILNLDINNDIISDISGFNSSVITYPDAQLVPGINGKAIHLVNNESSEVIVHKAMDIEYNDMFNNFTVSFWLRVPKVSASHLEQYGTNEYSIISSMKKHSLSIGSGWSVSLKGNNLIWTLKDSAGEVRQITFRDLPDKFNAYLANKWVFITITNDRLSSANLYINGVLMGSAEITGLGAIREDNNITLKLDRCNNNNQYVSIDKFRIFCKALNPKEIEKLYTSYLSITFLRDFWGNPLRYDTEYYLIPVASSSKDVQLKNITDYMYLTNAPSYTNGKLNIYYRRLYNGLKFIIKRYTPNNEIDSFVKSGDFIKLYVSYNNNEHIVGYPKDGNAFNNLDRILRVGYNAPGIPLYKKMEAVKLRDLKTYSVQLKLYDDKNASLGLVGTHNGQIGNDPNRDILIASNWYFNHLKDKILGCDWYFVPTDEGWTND

B1: TRN1014抗体 (重组全人源抗破伤风毒素单克隆抗体) (antibody, V domains shown)
VH: EVQLVESGGDLVPPGGSLRLSCVASGFTFRNYWMNWVRQAPGQGLQWVASIKDDGTESQYLESVKGRFTISRDNAKNSLSLQMDSLRAEDTALYFCTRVGGFYFGSERYYKGGDDVWGQGTTVTVSS
VL: DIVLTQSPSSLSASVGDRVTFTCRASQTISNYLHWYQQKPGQAPELLIFAASNRQGGVPSRFRGSGSGTDFTLTISPLEADDFATYYCQQSYSSPRTFGQGTKLEIK
The molecule B1 gave a Kd of 1.1 nM, a koff of 6.07e-05 s⁻¹ and an on-rate (kon) of 55100 M⁻¹ s⁻¹.
